Results from publication PMC12283967 (Nature Communications, 2025).
Where two headings read alike, the source gives them in different places.

Tests used:
[1] = target: the molecule itself; test: SEC
[2] = target: the molecule itself; test: SEC; remark: listed apart in the source

Protein | stoichiometry N [1] | stoichiometry N [2]
Sumo-His-tagged PFKM WT (enzyme, human, UniProt P08237 1-780, looked up) MTHEEHHAAKTLGIGKAIAVLTSGGDAQGMNAAVRAVVRVGIFTGARVFFVHEGYQGLVDGGDHIKEATWESVSMMLQLGGTVIGSARCKDFREREGRLRAAYNLVKRGITNLCVIGGDGSLTGADTFRSEWSDLLSDLQKAGKITDEEATKSSYLNIVGLVGSIDNDFCGTDMTIGTDSALHRIMEIVDAITTTAQSHQRTFVLEVMGRHCGYLALVTSLSCGADWVFIPECPPDDDWEEHLCRRLSETRTRGSRLNIIIVAEGAIDKNGKPITSEDIKNLVVKRLGYDTRVTVLGHVQRGGTPSAFDRILGSRMGVEAVMALLEGTPDTPACVVSLSGNQAVRLPLMECVQVTKDVTKAMDEKKFDEALKLRGRSFMNNWEVYKLLAHVRPPVSKSGSHTVAVMNVGAPAAGMNAAVRSTVRIGLIQGNRVLVVHDGFEGLAKGQIEEAGWSYVGGWTGQGGSKLGTKRTLPKKSFEQISANITKFNIQGLVIIGGFEAYTGGLELMEGRKQFDELCIPFVVIPATVSNNVPGSDFSVGADTALNTICTTCDRIKQSAAGTKRRVFIIETMGGYCGYLATMAGLAAGADAAYIFEEPFTIRDLQANVEHLVQKMKTTVKRGLVLRNEKCNENYTTDFIFNLYSEEGKGIFDSRKNVLGHMQQGGSPTPFDRNFATKMGAKAMNWMSGKIKESYRNGRIFANTPDSGCVLGMRKRALVFQPVAELKDQTDFEHRIPKEQWWLKLRPILKILAKYEIDLDTSDHAHLEHITRKRSGEAAV | 2 | 4
Sumo-His-tagged PFKM F639L (enzyme, human, UniProt P08237 1-780, looked up) MTHEEHHAAKTLGIGKAIAVLTSGGDAQGMNAAVRAVVRVGIFTGARVFFVHEGYQGLVDGGDHIKEATWESVSMMLQLGGTVIGSARCKDFREREGRLRAAYNLVKRGITNLCVIGGDGSLTGADTFRSEWSDLLSDLQKAGKITDEEATKSSYLNIVGLVGSIDNDFCGTDMTIGTDSALHRIMEIVDAITTTAQSHQRTFVLEVMGRHCGYLALVTSLSCGADWVFIPECPPDDDWEEHLCRRLSETRTRGSRLNIIIVAEGAIDKNGKPITSEDIKNLVVKRLGYDTRVTVLGHVQRGGTPSAFDRILGSRMGVEAVMALLEGTPDTPACVVSLSGNQAVRLPLMECVQVTKDVTKAMDEKKFDEALKLRGRSFMNNWEVYKLLAHVRPPVSKSGSHTVAVMNVGAPAAGMNAAVRSTVRIGLIQGNRVLVVHDGFEGLAKGQIEEAGWSYVGGWTGQGGSKLGTKRTLPKKSFEQISANITKFNIQGLVIIGGFEAYTGGLELMEGRKQFDELCIPFVVIPATVSNNVPGSDFSVGADTALNTICTTCDRIKQSAAGTKRRVFIIETMGGYCGYLATMAGLAAGADAAYIFEEPFTIRDLQANVEHLVQKMKTTVKRGLVLRNEKCNENYTTDLIFNLYSEEGKGIFDSRKNVLGHMQQGGSPTPFDRNFATKMGAKAMNWMSGKIKESYRNGRIFANTPDSGCVLGMRKRALVFQPVAELKDQTDFEHRIPKEQWWLKLRPILKILAKYEIDLDTSDHAHLEHITRKRSGEAAV |  | 2
